Numbering of substitutions follows the chain as printed. Several values for one entry are separate records, joined by “and”; a condition that tells them apart may be missing. Equal values may be shown once.
Columns and labels:
Settings in all cases: both partners purified
[1] = biological target: T1, typhoid toxin (A2B5 holotoxin: CdtB, PltA and a PltB homopentamer), biotinylated (Salmonella enterica serovar Typhi; …, UniProt Q8Z6A7;Q8Z6A4;Q8Z6A3); experiment: ELISA; […] (30 min, 37°C) […]
T1 construct: also called TyT; biotinylated typhoid toxin; not shown: His6, C-terminal, kept; copies: 1 + 1 + 5

[2] = biological target: T2, PltB homopentamer, biotinylated (Salmonella enterica serovar Typhi; …, UniProt Q8Z6A3, biotinylated with EZ-link NHS-Biotin (sites not given)); experiment: ELISA; […] (30 min, 37°C) […]
T2 construct: also called PltB5; pentameric PltB subunits

[3] = biological target: T3, typhoid toxin (A2B5 holotoxin: CdtB, PltA and a PltB homopentamer), biotinylated (Salmonella enterica serovar Typhi; …, UniProt Q8Z6A7;Q8Z6A4;Q8Z6A3); experiment: BLI; Octet Red96e; […] (2 µg/mL) […]; association 5 min, dissociation 30 min; 25°C; 1:1 model; […]
T3 construct: also called TyT; biotinylated typhoid toxin; not shown: His6, C-terminal, kept; copies: 1 + 1 + 5

[4] = biological target: T1, typhoid toxin (A2B5 holotoxin: CdtB, …); experiment: as above; remark: listed apart in the source

B1: T4B5 (VHH)
VHH: QLQLAESGGGLVQPGGSLRLSCAASGSIFSINVMGWYRQVPGKQREWVASITRGGGTLYADSVKGRFTISRDSAKNTVYLQMNSLKPEDTAVYYCNADLMEDSDSDYHEYWGQGTQVTVSS
notes: also called anti-CdtB VHH T4B5; source: E. coli Rosetta-gami 2(DE3)pLacI, pET32b+, purified (Ni-NTA)
B1: binds [1].

B2: T2G9 (VHH)
VHH: QVQLVETGGGSVQAGGSLRLSCAASGFTFDDYAIGWFRQAPGKEREMILCINSRGGSTSYYADSVKGRFTVSVNSAKNTAYLQMNSLKPEDTAVYYCAADVTPPHSCNALDAWGQGTLVTVSS
notes: also called anti-PltB VHH T2G9; source: E. coli Rosetta-gami 2(DE3)pLacI, pET32b+, purified (Ni-NTA)
For B2, the binding result [2] was “binds” and the kon [3] was 155000 M⁻¹ s⁻¹ and 139000 M⁻¹ s⁻¹ and 105000 M⁻¹ s⁻¹.

B3: T4E8 (VHH)
VHH: QLQLVESGGGLVQAGGSLRLSCAASGMSFSTYTMGWYRQAPGKRRGLVATISSGGSTNYADSVKGRFTISRDNAKDTVYLQMNSLKPEDTAEYYCNVKGDYQTPNMGYWGQGTRVTVSS
notes: also called anti-CdtB VHH T4E8; source: E. coli Rosetta-gami 2(DE3)pLacI, pET32b+, purified (Ni-NTA)
With B3 the Kd [3] was 2.03 nM and 4.44 nM and the kon [3] was 53300 M⁻¹ s⁻¹ and 73600 M⁻¹ s⁻¹.

B4: T4F3 (VHH)
VHH: QLQLVETGGGLVQPGGSLTLSCAASGFTLNYWHMGWYRQAPGKQRELVATISGHGITNYADSVKGRFTISRDDAKNSVYLQMNSLKPEDTAVYYCNFISRTNDWGQGTQVTVSS
notes: also called anti-CdtB VHH T4F3; source: E. coli Rosetta-gami 2(DE3)pLacI, pET32b+, purified (Ni-NTA)
B4: binds [1].

B5: T2E7 (VHH)
VHH: QLQLVESGGGLVQPGGSLRLSCAASGFTLDYYAIGWFRQAPGKERERVSCISGRDGGTYYADSVKGRFAISRDNAQNTVYLQMSRLKPEDTAAYYCAADYADNYCTGSFPPDYWGQGTQVTVSS
notes: also called anti-PltB VHH T2E7; source: E. coli Rosetta-gami 2(DE3)pLacI, pET32b+, purified (Ni-NTA)
B5 was tested, and the binding result [2] was “binds”, the Kd [3] was 0.629 nM and 0.618 nM and 0.911 nM and the koff [3] was 0.000278 s⁻¹ and 0.000313 s⁻¹ and 0.000369 s⁻¹. For the same binder, the kon [3] was 443000 M⁻¹ s⁻¹ and 507000 M⁻¹ s⁻¹ and 405000 M⁻¹ s⁻¹.

B6: T4E5 (VHH)
VHH: QLQLVETGGGLVQPGGSLKLSCVASGSIFSINVMGWFRQASGKQREVVAQITRGGGTIYADSVKGRFTISRDDAKNSVYLQMNSLNPEDTAVYLCNADLMQGIDSEYEDYWGQGTQVTVSS
notes: also called anti-CdtB VHH T4E5; source: E. coli Rosetta-gami 2(DE3)pLacI, pET32b+, purified (Ni-NTA)
In the case of B6, the kon [4] is reported as 424000 M⁻¹ s⁻¹ and 382000 M⁻¹ s⁻¹ and 306000 M⁻¹ s⁻¹.

B7: T4C4 (VHH)
VHH: QVQLAESGGGLVQPGGSLRLSCAASGSIFSINVMGWYRQAPGKQRESVAVITRGGGTMYADSVKGRATISRDSAKNTVYLQMNSLKPEDTAVYYCNADLMQAVDSEYEDYWGQGTQVTVSS
notes: also called anti-CdtB VHH T4C4; source: E. coli Rosetta-gami 2(DE3)pLacI, pET32b+, purified (Ni-NTA)
For B7, the Kd [4] was 0.284 nM and 0.11 nM, the koff [4] was 0.000264 s⁻¹ and 0.00026 s⁻¹ and the kon [4] was 929000 M⁻¹ s⁻¹ and 2.36e+06 M⁻¹ s⁻¹.

B8: T4C11 (VHH)
VHH: B7 VHH with V2L, A5V, S7T, V33I, A67F
notes: also called anti-CdtB VHH T4C11; source: E. coli Rosetta-gami 2(DE3)pLacI, pET32b+, purified (Ni-NTA)
B8: binds [1].

B9: T4C12 (VHH)
VHH: B7 VHH with S47F, G56S, M58D, A67F, S73N, A102T, V103S, D104A, Y110C
notes: also called anti-CdtB VHH T4C12; source: E. coli Rosetta-gami 2(DE3)pLacI, pET32b+, purified (Ni-NTA)
With B9 the Kd [4] was 2.84 nM and 1.55 nM and the koff [4] was 0.00121 s⁻¹ and 0.00243 s⁻¹.

— paper PMC8852740, “Neutralization of Typhoid Toxin by Alpaca-Derived, Single-Domain Antibodies Targeting the PltB and CdtB Subunits” (Infection and Immunity, 2021)
